Source: US20120244560A1 (ISHIHARA SANGYO, published 2012)

B1: monoclonal antibody produced by hybridoma ISK-MMH-TK2 (antibody, V domains shown)
VH: DVQLQDSGPGLVKPSQTVSLTCTVTGISITTGNFRWSWIRQFPGNKLEWIGYIYYSGTITYNPSLTSRTTITRDTSKNQFFLEMNSLTAEDTATYYCARELYGYGYFDVWAAGTTVTVSS
VL: DVVMTQIPLSLPVSLGDQASISCRSTQSLVHSNGNTYLHWFLQKPGQSPKLLIYKVSNRFSGVPDRFSGSGSGTDFTLKISRVEAEDLGVYFCSQSKYVPRTFGGGTKLEIKR
notes: used as hybridoma culture supernatant; The whole entries are named; they hold leader and primer-derived residues, X and *; also called FERM BP-11266
B2: HIG-1-Flag (human HIG-1 polypeptide with a Flag tag downstream, made in E. coli as GST-HIG-1-Flag, GST cleaved off with PreScission Protease) (other, UniProt Q9Y241 1-93, looked up)
chain: MSTDTGVSLPSYEEDQGSKLIRKAKEAPFVPVGIAGFAAIVAYGLYKLKSRGNTKMSIHLIHMRVAAQGFVVGAMTVGMGYSMYREFWAKPKP
notes: Expressed from pGST-HIG-1-Flag (pGEX 6P-1); also called HIG-1-Flag protein; not shown: Flag tag downstream of HIG-1

Assays:
[1] = target: B2; assay: competitive ELISA, coated HIG-1-Flag, soluble HIG-1-Flag as competitor
Procedure: Specifically, the HIG-1-Flag obtained in Example 2 as a solid-phase antigen was coated at a concentration of 2.5 μg/mL (50 mM carbonate buffer solution, pH 9.6, Sigma, No. C3041) in an amount of 50 μL per well, onto a plate at room temperature for 1 hour. Washing was performed 3 times with PBS-T, and then blocking was conducted with PBS (10% FBS-PBS) containing 10% FBS for 1 hour. After washing was performed 3 times with PBS-T, the PBS-T diluent of the antibody culture supernatant obtained in Example 1 was mixed with a diluted solution of a competitive substance (serial dilution with PBS-T) and reacted at room temperature for 1 hour. The reaction mixture was placed in a plate in an amount of 50 W., per well and allowed to stand for 1 hour at room temperature. […] After reaction, the 405 nm absorbance was measured.
These antibodies were both capable of quantitatively measuring a HIG-1-Flag in the range of 0.7 to 6.2 ng/mL. The dissociation constant Kd of the monoclonal antibody to a HIG-1-Flag was calculated with reference to “Antibody engineering; A Practical Approach” (edited by McCafferty J., et al.), Chapter 4, 77-97, IRL Press Oxford.

[2] = target: B1; assay: competitive ELISA: HIG-1-Flag coated at 2.5 µg/mL, ISK-MMH-TK2 culture supernatant (diluted 3,200-fold) premixed with soluble HIG-1-Flag as competing agent, AP-labelled anti-mouse IgG, A405nm
Procedure: Specifically, the HIG-1-Flag obtained in Example 2 as a solid-phase antigen was coated at a concentration of 2.5 μg/mL (50 mM carbonate buffer solution, pH 9.6, Sigma, No. C3041) in an amount of 50 μL per well, onto a plate at room temperature for 1 hour. Washing was performed 3 times with PBS-T, and then blocking was conducted with PBS (10% FBS-PBS) containing 10% FBS for 1 hour. After washing was performed 3 times with PBS-T, the PBS-T diluent of the antibody culture supernatant obtained in Example 1 was mixed with a diluted solution of a competitive substance (serial dilution with PBS-T) and reacted at room temperature for 1 hour. The reaction mixture was placed in a plate in an amount of 50 W., per well and allowed to stand for 1 hour at room temperature. […] As competitive substances, a HIG-1-Flag (on which 3-fold serial dilution was performed 8 times from 0.167 μg/mL), KLH (on which 3-fold serial dilution was performed 8 times from 100 μg/mL), or GST (on which 3-fold serial dilution was performed 8 times from 100 μg/mL) was used. After washing was performed using PBS-T 3 times, the alkaline phosphatase-labeled secondary antibody (anti-mouse IgG) diluted 1,000-fold with 10% FBS-PBS-T was placed in an amount of 50 per well and allowed to stand at room temperature for 1 hour. […] After reaction, the 405 nm absorbance was measured.

Binder: B1
- Kd [1]: 0.17 nM

Binder: B2
- IC50 (read off the curve) [2]: ~2 ng/mL

B3: monoclonal antibody produced by hybridoma ISK-MMH-TK1 (antibody, V domains shown)
VH: EVQLQQSGPELVKPGASVKISCKTSGYTFTKYTMHWVKQSHGKSLEWIGGINPNNGGSRYDQKFRGKATLTVDKSSSTAYMEFRSLTSEDSAVYYCARDFVYWGQGTLVTVSA
VL: DVLMTQTPLSLPVSLGDQASISCRSSQSIVHSNGNTYLEWYLQKPGQSPKLLIYKVSNRFSGVPDRFSGSGSGTDFTLKISRVEAEDLGVYYCFQGSHVPWTFGGGTKLEIKR
notes: used as hybridoma culture supernatant; The whole entries are named; they hold leader and primer-derived residues, X and * that are not part of the mature antibody; also called FERM BP-11267
- Kd [1]: 0.22 nM
